The values below come from IntAct's records for PubMed 15530371.

In this test the target is T1, cdkn3_human CDKN3 (UniProt Q16667).
T1 sequence: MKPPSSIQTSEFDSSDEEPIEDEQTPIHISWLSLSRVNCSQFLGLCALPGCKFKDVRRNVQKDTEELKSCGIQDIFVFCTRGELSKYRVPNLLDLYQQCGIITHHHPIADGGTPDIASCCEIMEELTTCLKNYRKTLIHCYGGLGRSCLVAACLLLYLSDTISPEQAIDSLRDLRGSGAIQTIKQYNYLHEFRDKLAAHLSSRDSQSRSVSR

Regarding “Cyclin-dependent kinase 2 (Homo sapiens) (from UniProt P24941) K237V”, the “effect of a mutation on the interaction” value is “disrupting interaction”.
